Measured values reported in patent publication US20130266574A1 (Regeneron, published 2013).

T1: full-length hANGPTL4 (amino acid residues 26-406 of SEQ ID NO:476) with a C-terminal hexa-histidine tag (human, UniProt Q9BY76 26-406)
T1 sequence: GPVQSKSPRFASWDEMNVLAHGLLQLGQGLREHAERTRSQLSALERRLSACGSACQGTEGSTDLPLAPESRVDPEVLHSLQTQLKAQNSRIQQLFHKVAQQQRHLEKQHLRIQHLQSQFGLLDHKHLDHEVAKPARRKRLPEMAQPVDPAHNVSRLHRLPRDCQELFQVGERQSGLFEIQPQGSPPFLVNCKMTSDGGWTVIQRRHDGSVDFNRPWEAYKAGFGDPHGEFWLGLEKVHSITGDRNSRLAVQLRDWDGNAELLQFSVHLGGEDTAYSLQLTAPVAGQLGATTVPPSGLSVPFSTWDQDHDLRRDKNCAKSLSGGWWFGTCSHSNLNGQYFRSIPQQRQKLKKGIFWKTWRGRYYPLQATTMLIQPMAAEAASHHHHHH

T2: amino acid residues 26-148 of human ANGPTL4 fused in-line to mouse IgG2a (hANGPTL4-mFc) (human)
T2 chain: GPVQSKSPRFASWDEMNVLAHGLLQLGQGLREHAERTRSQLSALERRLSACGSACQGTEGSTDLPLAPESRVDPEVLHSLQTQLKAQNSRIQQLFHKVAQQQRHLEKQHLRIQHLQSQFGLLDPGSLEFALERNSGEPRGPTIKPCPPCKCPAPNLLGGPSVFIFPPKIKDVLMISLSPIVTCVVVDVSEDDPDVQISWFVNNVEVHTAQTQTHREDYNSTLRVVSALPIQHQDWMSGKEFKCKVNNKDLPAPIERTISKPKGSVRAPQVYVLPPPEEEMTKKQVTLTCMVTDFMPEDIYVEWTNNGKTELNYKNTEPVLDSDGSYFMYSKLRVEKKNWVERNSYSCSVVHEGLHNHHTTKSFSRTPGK

T3: cynomolgus monkey ANGPTL4 N-terminal region (amino acid residues 1-130 of SEQ ID NO:490) with a C-terminal … (cynomolgus monkey (Macaca fascicularis), UniProt Q9BY76 26-130 (human entry))
T3 construct: also called MfANGPTL4(1-130)-His
T3 chain: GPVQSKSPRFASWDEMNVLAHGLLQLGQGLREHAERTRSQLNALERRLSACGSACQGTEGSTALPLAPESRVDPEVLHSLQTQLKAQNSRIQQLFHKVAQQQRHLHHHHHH

T4: cynomolgus monkey ANGPTL4 N-terminal region (amino acid residues 26-148) with an N-terminal hexa-histidine tag (cynomolgus monkey, UniProt Q9BY76 26-148 (human entry))
T4 chain: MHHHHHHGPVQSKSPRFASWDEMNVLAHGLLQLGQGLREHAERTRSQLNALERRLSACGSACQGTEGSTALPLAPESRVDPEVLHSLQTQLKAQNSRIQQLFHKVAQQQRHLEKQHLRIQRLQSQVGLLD


What was measured:
[1] = biological target: T1, full-length hANGPTL4 (amino acid …); test: cell-based or functional assay
[2] = biological target: T2, amino acid residues 26-148 of human …; test: cell-based or functional assay
[3] = biological target: T2, amino acid residues 26-148 of human …; test: SPR (Biacore), 25° C., pH 5.75, antigen captured by anti-mFc
Method: (§1) Kinetic analysis was performed to measure kₐ and kd, and KD values and half-life of antigen/antibody complex dissociation were calculated. The results are shown in Table 4 (H1H268P) and Table 5 (H1H284P).

[4] = biological target: T1, full-length hANGPTL4 (amino acid …); test: cell-based or functional assay; remark: listed apart in the source
[5] = biological target: T2, amino acid residues 26-148 of human …; test: cell-based or functional assay
[6] = biological target: T3, cynomolgus monkey ANGPTL4 N-terminal …; test: SPR (Biacore), 25° C., pH 5.75, antigen amino-coupled 1,028 RU
Method: as §1

[7] = biological target: T1, full-length hANGPTL4 (amino acid …); test: SPR (Biacore), 25° C., pH 5.75, antigen amino-coupled 450 RU
Method: as §1

[8] = biological target: T1, full-length hANGPTL4 (amino acid …); test: cell-based or functional assay; remark: listed apart in the source
[9] = biological target: T2, amino acid residues 26-148 of human …; test: cell-based or functional assay
[10] = biological target: T2, amino acid residues 26-148 of human …; test: SPR (Biacore T100), hANGPTL4-mFc captured by anti-mouse IgG, antibody injected, 25° C.
Method: Antigen-antibody binding and dissociation were monitored in real time at 25° C. and 37° C. Kinetic analysis was performed to calculate KD and half-life of antigen/antibody complex dissociation.

[11] = biological target: T1, full-length hANGPTL4 (amino acid …); test: cell-based or functional assay; remark: listed apart in the source
[12] = biological target: T4, cynomolgus monkey ANGPTL4 N-terminal …; test: cell-based or functional assay
[13] = biological target: T2, amino acid residues 26-148 of human …; test: cell-based or functional assay
[14] = biological target: T1, full-length hANGPTL4 (amino acid …); test: SPR (Biacore), 25° C., pH 7.2, antigen amino-coupled 450 RU
Method: as §1

Row | % Inhibition of hANGPTL4 Activity (LPL lipase test), hANGPTL4-His (10 nM) [1] | % Inhibition of hANGPTL4 Activity (LPL lipase test), hANGPTL4-mFc (2 nM) [2] | Kd [3] | koff [3] | kon [3] | t1/2 [3] | IC50 (nM) in the LPL inhibition assay, constant ANGPTL4 10 nM [4] | IC50 (nM) in the LPL inhibition assay, constant ANGPTL4 2 nM [5] | t1/2 [6] | Kd [7] | koff [7] | kon [7] | t1/2 [7] | IC50, antibody concentration required for 50% maximum inhibition of 10 nM hANGPTL4-His (LPL lipase test) [8] | IC50, antibody concentration required for 50% maximum inhibition of 2 nM hANGPTL4-mFc (LPL lipase test) [9] | Kd [10] | t1/2 [10] | IC50 (nM) in the LPL bioassay, constant ANGPTL4 10 nM [11] | IC50 (nM) in the LPL bioassay, constant ANGPTL4 10 nM [12] | IC50 (nM) in the LPL bioassay, constant ANGPTL4 2 nM [13] | Binder | also measured
1 | 90% | 82% | 0.0819 nM | 8.91e-05 s⁻¹ | 1.09e+06 M⁻¹ s⁻¹ | 2.17 h | 0.42 nM | 0.33 nM | 2.28 h | 0.141 nM | 0.000272 s⁻¹ | 1.93e+06 M⁻¹ s⁻¹ | 0.7 h | 0.5 nM | 0.8 nM | 0.168 nM | 2.7 h | 0.31 nM | 0.42 nM | 0.51 nM | H1H284P (antibody, V domains shown, also called entire H1H284 mAb; Full mAb) VH: QVQLVESGGGVVQPGRSLRLSCAASGFTFSSYGMHWVRQAPGKGLEWMAVISFDGGNKNNADSVKGRFTISRDNSKNTLYLQMNSLRAEDTAVYYCAKEGDRSGHPYFYYYGLDVWGQGTTVTVS VL: DIQLTQSPSFLSASVGDRVTITCWASQGISSYLAWYQQKPGKAPKLLIYAASTLQSGVPSRFSGSGSETEFTLTISSLQPEDFATYYCQQLHSYPLTFGGGTKVEIK | koff [6]: 8.42e-05 s⁻¹; kon [6]: 1.55e+06 M⁻¹ s⁻¹; Kd [14]: 0.105 nM; koff [14]: 8.85e-05 s⁻¹; kon [14]: 850000 M⁻¹ s⁻¹; t1/2 [14]: 2.17 h
2 | 80% | 76% | 0.22 nM | 0.000138 s⁻¹ | 628000 M⁻¹ s⁻¹ | 1.4 h | 0.2 nM | 0.67 nM | 2.33 h | 0.483 nM | 0.000446 s⁻¹ | 923000 M⁻¹ s⁻¹ | 0.433 h | 0.2 nM | 1.2 nM | 0.275 nM | 1.33 h | 0.46 nM | 0.42 nM | 0.47 nM | H1H268P (antibody, V domains shown, also called entire H1H268 mAb; Full mAb) VH: QVQLQESGAGLLKPSETLSLTCTVYGGSFSIHHWTWIRHPPGKGLEWIGEINHRGSTNYNPSLKSRVTISIDTSKNQFSLKLSAVTAADTAVYYCARGLRFLDWLSSYFDYWGQGTLVTVSS VL: DIQMTQSPSSLSASVGDRVTITCRASQGISDYLAWYQQKPGKVPNLLIYAASALQSGVPSRFSGSGSGTDFTLTISSLQPEDVATYYCQNYNTAPLTFGGGTKVEIK | Kd [14]: 0.408 nM; koff [14]: 0.0002 s⁻¹; kon [14]: 489000 M⁻¹ s⁻¹; t1/2 [14]: 0.967 h
